The binders below were run against FGFR2 on SNU16 cells (FGFR2 amplification) (human (endogenous in SNU16), UniProt P21802 22-821) (assay: FACS; apparent Kd, SNU16 cells).
FGFR2 on SNU16 cells (FGFR2 amplification), sequence (P21802 22-821): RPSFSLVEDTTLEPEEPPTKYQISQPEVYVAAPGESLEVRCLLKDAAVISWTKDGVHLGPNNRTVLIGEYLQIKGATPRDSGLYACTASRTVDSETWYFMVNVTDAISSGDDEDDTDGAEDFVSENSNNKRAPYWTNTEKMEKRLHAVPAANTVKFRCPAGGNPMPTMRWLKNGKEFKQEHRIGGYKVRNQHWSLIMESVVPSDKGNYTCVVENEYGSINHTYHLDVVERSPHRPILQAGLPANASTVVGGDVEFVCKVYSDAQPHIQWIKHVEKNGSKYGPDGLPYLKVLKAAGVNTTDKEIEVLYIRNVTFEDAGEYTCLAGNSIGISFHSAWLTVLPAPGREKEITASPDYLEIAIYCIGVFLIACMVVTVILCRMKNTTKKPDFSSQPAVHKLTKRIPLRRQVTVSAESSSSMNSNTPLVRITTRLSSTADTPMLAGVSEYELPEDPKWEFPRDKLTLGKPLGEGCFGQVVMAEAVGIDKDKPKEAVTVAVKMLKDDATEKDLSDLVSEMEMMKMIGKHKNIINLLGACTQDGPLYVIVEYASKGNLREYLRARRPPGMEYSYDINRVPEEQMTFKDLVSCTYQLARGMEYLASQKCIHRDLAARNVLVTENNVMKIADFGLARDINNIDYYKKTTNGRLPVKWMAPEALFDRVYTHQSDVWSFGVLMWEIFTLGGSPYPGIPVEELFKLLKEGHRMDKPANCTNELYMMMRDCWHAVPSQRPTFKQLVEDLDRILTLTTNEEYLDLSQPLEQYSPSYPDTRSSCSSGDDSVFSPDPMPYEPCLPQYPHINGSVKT

Kd	Binder
0.15 nM	FGFR2 parental antibody C (antibody, V domains shown) VH: QVQLVESGGGLVKPGGSLRLSCAASGFTFSSYALSWVRQAPGKGLEWVGRIRSKIDGGTTDYAAPVKGRFTISRDDSKNTLYLQMNSLKTEDTAVYYCARDRSPSDSSAFAIWGQGTLVTVSS VL: DIELTQPPSVSVSPGQTASITCSGDNLGSQYVDWYQQKPGQAPVLVIYDDNDRPSGIPERFSGSNSGNTATLTISGTQAEDEADYYCQSWDSLSVVFGGGTKLTVL
9.4 nM	FGFR2 parental antibody F (antibody, V domains shown) VH: QVQLVQSGAEVKKPGESLKISCKGSGYSFTNYYIHWVRQMPGKGLEWMGAIYPDNSDTTYSPSFQGQVTISADKSISTAYLQWSSLKASDTAMYYCARGADIWGQGTLVTVSS VL: DIQMTQSPSSLSASVGDRVTITCRASQDIDPYLSNWYQQKPGKAPKLLIYDASNLQSGVPSRFSGSGSGTDFTLTISSLQPEDFATYYCQQTTSHPYTFGQGTKVEIK
32.8 nM	FGFR2 parental antibody B (antibody, V domains shown) VH: QIQLVQSGPELKKPGETVKISCKASGYTFTDFGMNWMKQAPGKGFKWMGWINTSTGESTYADDFKGRFAFSLETSASTAYLQINNLKNEDMATYFCARNSYYGGSYGYWGQGTTLTVSS VL: not shown
1.77 nM	FGFR2 parental antibody E (antibody, V domains shown) VH: QVQLVQSGAEVKKPGSSVKVSCKASGYIFTTYNVHWVRQAPGQGLEWIGSIYPDNGDTSYNQNFKGRATITADKSTSTAYMELSSLRSEDTAVYYCARGDFAYWGQGTLVTVSS VL: DIQMTQSPSSLSASVGDRVTITCKASQGVSNDYAWYQQKPGKAPKLLIYSASYRYTGVPSRFSGSGSGTDFTFTISSLQPEDIATYYCQQHSTTPYTFGQGTKLEIK
1.99 nM	FGFR2 parental antibody D (antibody, V domains shown) VH: EVQLVESGGGLVQPGGSLRLSCAASGFPFTSTGISWVRQAPGKGLEWVGRTHLGDGSTNYADSVKGRFTISADTSKNTAYLQMNSLRAEDTAVYYCARTYGIYDTYDMYTEYVMDYWGQGTLVTVSS VL: DIQMTQSPSSLSASVGDRVTITCRASQDVDTSLAWYKQKPGKAPKLLIYSASFLYSGVPSRFSGSGSGTDFTLTISSLQPEDFATYYCQQSTGHPQTFGQGTKVEIK
0.76 nM	FGFR2 parental antibody A (antibody, V domains shown) VH: EVQLLESGGGLVQPGGSLRLSCAASGFTFSSYAMSWVRQAPGKGLEWVSAISGSGTSTYYADSVKGRFTISRDNSKNTLYLQMNSLRAEDTAVYYCARVRYNWNHGDWFDPWGQGTLVTVSS VL: QSVLTQPPSASGTPGQRVTISCSGSSSNIGNNYVSWYQQLPGTAPKLLIYENYNRPAGVPDRFSGSKSGTSASLAISGLRSEDEADYYCSSWDDSLNYWVFGGGTKLTVL
